Experiment [1] addresses T1, sTLT1 (SEQ ID No: 3 with six histidine residues added at the C-terminus) (human, UniProt Q86YW5 16-162).
T1 construct: Soluble TLT-1 used in SPR
T1 sequence: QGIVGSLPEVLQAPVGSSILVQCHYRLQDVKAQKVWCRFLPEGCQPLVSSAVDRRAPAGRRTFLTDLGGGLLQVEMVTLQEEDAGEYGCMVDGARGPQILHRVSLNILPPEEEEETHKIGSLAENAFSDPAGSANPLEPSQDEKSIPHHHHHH
In words: dissociation constant listed with the stimulatory activities; value of the anti-TLT-1 arm.

In experiment [2] the target is T2, recombinant human activated FVII (FVIIa) (human, UniProt P08709 61-212; P08709 213-466, ten glutamate residues of the Gla domain may be gamma-carboxylated).
T2 sequence 1: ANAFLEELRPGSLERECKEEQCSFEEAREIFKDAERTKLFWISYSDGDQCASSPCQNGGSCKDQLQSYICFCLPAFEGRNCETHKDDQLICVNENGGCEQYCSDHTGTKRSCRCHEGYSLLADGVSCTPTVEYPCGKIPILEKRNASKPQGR
T2 sequence 2: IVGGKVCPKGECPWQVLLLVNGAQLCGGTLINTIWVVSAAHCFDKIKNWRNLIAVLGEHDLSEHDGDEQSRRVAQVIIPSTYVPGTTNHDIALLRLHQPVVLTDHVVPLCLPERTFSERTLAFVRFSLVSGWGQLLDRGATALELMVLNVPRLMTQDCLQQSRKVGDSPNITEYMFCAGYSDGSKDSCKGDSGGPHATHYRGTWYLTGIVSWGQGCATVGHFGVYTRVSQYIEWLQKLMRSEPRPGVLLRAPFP
In words: cell-based or functional assay.

Experiment [3] addresses T2, recombinant human activated FVII (FVIIa). In words: dissociation constant listed with the stimulatory activities; value of the anti-FVII(a) arm mAb0873.

B1: biAb0099 (bispecific antibody, human IgG4 S228P, kappa)
heavy 1: DVQLQESGPGLVKPSQTLSLTCTVSGYSISSDSAWSWIRQPPGKGLEWIGYIQYSGSTNYNPSLKSRVTISRDTSKNQFSLKLSSVTAADTAVYYCARSVNYYGNSFWVDPWGQGTLVTVSSASTKGPSVFPLAPCSRSTSESTAALGCLVKDYFPEPVTVSWNSGALTSGVHTFPAVLQSSGLYSLSSVVTVPSSSLGTKTYTCNVDHKPSNTKVDKRVESKYGPPCPPCPAPEFLGGPSVFLFPPKPKDTLMISRTPEVTCVVVDVSQEDPEVQFNWYVDGVEVHNAKTKPREEQFNSTYRVVSVLTVLHQDWLNGKEYKCKVSNKGLPSSIEKTISKAKGQPREPQVYTLPPSQEEMTKNQVSLTCLVKGFYPSDIAVEWESNGQPENNYKTTPPVLDSDGSFLLYSKLTVDKSRWQEGNVFSCSVMHEALHNHYTQKSLSLSLGK
light 1: DIVMTQSPATLSVTAGDRVSLSCRASQGISDYLHWYQQKSHESPRLLIKYTSQPVSGIPSRFSGSGSGSEFTLSINSVEPEDVGVYYCQNGHSFPLTFGAGTKLELKRTVAAPSVFIFPPSDEQLKSGTASVVCLLNNFYPREAKVQWKVDNALQSGNSQESVTEQDSKDSTYSLSSTLTLSKADYEKHKVYACEVTHQGLSSPVTKSFNRGEC
heavy 2: not shown
light 2: DIVMTQTPLSSPVTLGQPASISCRSSQSLVHRNGNTYFHWLQQRPGQPPRLLIYKVSNRFSGVPDRFSGSGAGTDFTLKISRVEAEDVGVYYCSQSTHVPYTFGQGTKLEIKRTVAAPSVFIFPPSDEQLKSGTASVVCLLNNFYPREAKVQWKVDNALQSGNSQESVTEQDSKDSTYSLSSTLTLSKADYEKHKVYACEVTHQGLSSPVTKSFNRGEC
notes: Duobody, constant domain type H (IgG4): anti-FVII(a) arm mAb0873, anti-TLT-1 arm mAb1047; also called mAb0873 x mAb1047
In general, Kd refers to the equilibrium constant for the complex coming apart. With B1, the Kd was 75 nM in experiment [1] and 600 nM in experiment [3]. In experiment [2], the “Stimulation (fold): FXa generated by FVIIa with lipidated TLT-1 and 100 nM biAb, relative to free FVIIa” value (“Stimulation (fold) … relative to free FVIIa” below) turned out to be 5.8 fold.

B2: biAb0094 (bispecific antibody, human IgG4 S228P, kappa)
heavy 1: DVQLQESGPGLVKPSQTLSLTCTVSGYSISSDSAWSWIRQPPGKGLEWIGYIQYSGSTNYNPSLKSRVTISRDTSKNQFSLKLSSVTAADTAVYYCARSVNYYGNSFWVDPWGQGTLVTVSSASTKGPSVFPLAPCSRSTSESTAALGCLVKDYFPEPVTVSWNSGALTSGVHTFPAVLQSSGLYSLSSVVTVPSSSLGTKTYTCNVDHKPSNTKVDKRVESKYGPPCPPCPAPEFLGGPSVFLFPPKPKDTLMISRTPEVTCVVVDVSQEDPEVQFNWYVDGVEVHNAKTKPREEQFNSTYRVVSVLTVLHQDWLNGKEYKCKVSNKGLPSSIEKTISKAKGQPREPQVYTLPPSQEEMTKNQVSLTCLVKGFYPSDIAVEWESNGQPENNYKTTPPVLDSDGSFLLYSKLTVDKSRWQEGNVFSCSVMHEALHNHYTQKSLSLSLGK
light 1: DIVMTQSPATLSVTAGDRVSLSCRASQGISDYLHWYQQKSHESPRLLIKYTSQPVSGIPSRFSGSGSGSEFTLSINSVEPEDVGVYYCQNGHSFPLTFGAGTKLELKRTVAAPSVFIFPPSDEQLKSGTASVVCLLNNFYPREAKVQWKVDNALQSGNSQESVTEQDSKDSTYSLSSTLTLSKADYEKHKVYACEVTHQGLSSPVTKSFNRGEC
heavy 2: not shown
light 2: DIVMTQTPLSSPVTLGQPASISCRSSQSLVHRNGNTYFHWLQQRPGQPPRLLIYKVSNRFSGVPDRFSGSGAGTDFTLKISRVEAEDVGVYYCSQSTHVPYTFGQGTKLEIKRTVAAPSVFIFPPSDEQLKSGTASVVCLLNNFYPREAKVQWKVDNALQSGNSQESVTEQDSKDSTYSLSSTLTLSKADYEKHKVYACEVTHQGLSSPVTKSFNRGEC
notes: Duobody, constant domain type H (IgG4): anti-FVII(a) arm mAb0873, anti-TLT-1 arm mAb1049; also called mAb0873 x mAb1049
On to B2, for which the results for the Kd in experiment [1] and in experiment [3] were 320 nM and 600 nM, respectively. In addition, the “Stimulation (fold) … relative to free FVIIa” value in experiment [2] worked out at 5.4 fold.

B3: biAb0014 (bispecific antibody, human IgG4 S228P, kappa)
heavy 1: DVQLQESGPGLVKPSQTLSLTCTVSGYSISSDSAWSWIRQPPGKGLEWIGYIQYSGSTNYNPSLKSRVTISRDTSKNQFSLKLSSVTAADTAVYYCARSVNYYGNSFWVDPWGQGTLVTVSSASTKGPSVFPLAPCSRSTSESTAALGCLVKDYFPEPVTVSWNSGALTSGVHTFPAVLQSSGLYSLSSVVTVPSSSLGTKTYTCNVDHKPSNTKVDKRVESKYGPPCPPCPAPEFLGGPSVFLFPPKPKDTLMISRTPEVTCVVVDVSQEDPEVQFNWYVDGVEVHNAKTKPREEQFNSTYRVVSVLTVLHQDWLNGKEYKCKVSNKGLPSSIEKTISKAKGQPREPQVYTLPPSQEEMTKNQVSLTCLVKGFYPSDIAVEWESNGQPENNYKTTPPVLDSDGSFLLYSKLTVDKSRWQEGNVFSCSVMHEALHNHYTQKSLSLSLGK
light 1: DIVMTQSPATLSVTAGDRVSLSCRASQGISDYLHWYQQKSHESPRLLIKYTSQPVSGIPSRFSGSGSGSEFTLSINSVEPEDVGVYYCQNGHSFPLTFGAGTKLELKRTVAAPSVFIFPPSDEQLKSGTASVVCLLNNFYPREAKVQWKVDNALQSGNSQESVTEQDSKDSTYSLSSTLTLSKADYEKHKVYACEVTHQGLSSPVTKSFNRGEC
heavy 2: not shown
light 2: DIVMTQTPLSSPVTLGQPASISCRSSQSLVHRQGNTYFHWLQQRPGQPPRLLIYKVSNRFSGVPDRFSGSGAGTDFTLKISRVEAEDVGVYYCSQSTHVPYTFGQGTKLEIKRTVAAPSVFIFPPSDEQLKSGTASVVCLLNNFYPREAKVQWKVDNALQSGNSQESVTEQDSKDSTYSLSSTLTLSKADYEKHKVYACEVTHQGLSSPVTKSFNRGEC
notes: also called mAb0873 x mAb1076
Consider B3, for which the results for the Kd in experiment [1] and in experiment [3] were 2.9 nM and 600 nM, respectively. Further, the “Stimulation (fold) … relative to free FVIIa” value in experiment [2] amounted to 8 fold.

B4: biAb0019 (bispecific antibody, human IgG4 S228P, kappa)
heavy 1: DVQLQESGPGLVKPSQTLSLTCTVSGYSISSDSAWSWIRQPPGKGLEWIGYIQYSGSTNYNPSLKSRVTISRDTSKNQFSLKLSSVTAADTAVYYCARSVNYYGNSFWVDPWGQGTLVTVSSASTKGPSVFPLAPCSRSTSESTAALGCLVKDYFPEPVTVSWNSGALTSGVHTFPAVLQSSGLYSLSSVVTVPSSSLGTKTYTCNVDHKPSNTKVDKRVESKYGPPCPPCPAPEFLGGPSVFLFPPKPKDTLMISRTPEVTCVVVDVSQEDPEVQFNWYVDGVEVHNAKTKPREEQFNSTYRVVSVLTVLHQDWLNGKEYKCKVSNKGLPSSIEKTISKAKGQPREPQVYTLPPSQEEMTKNQVSLTCLVKGFYPSDIAVEWESNGQPENNYKTTPPVLDSDGSFLLYSKLTVDKSRWQEGNVFSCSVMHEALHNHYTQKSLSLSLGK
light 1: DIVMTQSPATLSVTAGDRVSLSCRASQGISDYLHWYQQKSHESPRLLIKYTSQPVSGIPSRFSGSGSGSEFTLSINSVEPEDVGVYYCQNGHSFPLTFGAGTKLELKRTVAAPSVFIFPPSDEQLKSGTASVVCLLNNFYPREAKVQWKVDNALQSGNSQESVTEQDSKDSTYSLSSTLTLSKADYEKHKVYACEVTHQGLSSPVTKSFNRGEC
heavy 2: not shown
light 2: DIVMTQTPLSSPVTLGQPASISCRSSQSLVHRPGNTYFHWLQQRPGQPPRLLIYKVSNRFSGVPDRFSGSGAGTDFTLKISRVEAEDVGVYYCSQSTHVPYTFGQGTKLEIKRTVAAPSVFIFPPSDEQLKSGTASVVCLLNNFYPREAKVQWKVDNALQSGNSQESVTEQDSKDSTYSLSSTLTLSKADYEKHKVYACEVTHQGLSSPVTKSFNRGEC
notes: also called mAb0873 x mAb1038
For the molecule B4, the figures for the dissociation constant Kd in experiment [1] and in experiment [3] were 19 nM and 600 nM, respectively. The “Stimulation (fold) … relative to free FVIIa” value in experiment [2] stood at 9.4 fold.

The values above are taken from patent US20220064329A1 (Novo Nordisk, published 2022).
